Test results from patent US20100267609A1 (OKLAHOMA MEDICAL RESEARCH FOUNDATION, published 2010).
Where no end group is shown, it is not given here. [ ]: non-standard residue; d: D form. FAM = 5-(and 6-)carboxyfluorescein; resin = not defined here; Ahx = NCCCCCC(=O)O

Assays:
[1] = molecular target: T1, memapsin 2 (spontaneously activated promemapsin 2-T1; amino acids 43-456 and 45-456 of SEQ ID NO: 8) (human, UniProt P56817 41-454); experiment: kinetic inhibition of memapsin 2, fluorogenic substrate
T1 construct: also called Mep2; M2
T1 sequence (P56817 41-454 Q214G): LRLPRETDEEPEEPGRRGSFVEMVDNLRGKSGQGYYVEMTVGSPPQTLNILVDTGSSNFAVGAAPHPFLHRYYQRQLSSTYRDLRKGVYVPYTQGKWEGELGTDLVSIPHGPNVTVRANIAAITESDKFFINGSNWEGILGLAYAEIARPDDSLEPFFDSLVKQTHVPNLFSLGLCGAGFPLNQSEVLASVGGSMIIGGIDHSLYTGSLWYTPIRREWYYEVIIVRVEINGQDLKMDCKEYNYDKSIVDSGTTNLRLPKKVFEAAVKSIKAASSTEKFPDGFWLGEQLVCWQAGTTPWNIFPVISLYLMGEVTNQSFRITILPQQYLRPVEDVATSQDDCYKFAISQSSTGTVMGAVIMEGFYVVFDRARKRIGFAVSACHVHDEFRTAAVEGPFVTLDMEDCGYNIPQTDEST

[2] = molecular target: T1, memapsin 2 (spontaneously activated …); experiment: bead library probed with 4 nM memapsin 2, OM99-2 wash, anti-memapsin 2 IgG and alkaline phosphatase staining
[3] = molecular target: T1, memapsin 2 (spontaneously activated …); experiment: inhibition of cleavage of a fluorogenic substrate
[4] = molecular target: T1, memapsin 2 (spontaneously activated …); experiment: inhibition of cleavage of fluorogenic substrate FS-2
[5] = molecular target: T2, memapsin 1 (amino acid residues 58-461 of SEQ ID NO: 4) (Homo sapiens (Human), UniProt Q9Y5Z0 63-466); experiment: as above
T2 construct: also called Mep1; M1
T2 sequence: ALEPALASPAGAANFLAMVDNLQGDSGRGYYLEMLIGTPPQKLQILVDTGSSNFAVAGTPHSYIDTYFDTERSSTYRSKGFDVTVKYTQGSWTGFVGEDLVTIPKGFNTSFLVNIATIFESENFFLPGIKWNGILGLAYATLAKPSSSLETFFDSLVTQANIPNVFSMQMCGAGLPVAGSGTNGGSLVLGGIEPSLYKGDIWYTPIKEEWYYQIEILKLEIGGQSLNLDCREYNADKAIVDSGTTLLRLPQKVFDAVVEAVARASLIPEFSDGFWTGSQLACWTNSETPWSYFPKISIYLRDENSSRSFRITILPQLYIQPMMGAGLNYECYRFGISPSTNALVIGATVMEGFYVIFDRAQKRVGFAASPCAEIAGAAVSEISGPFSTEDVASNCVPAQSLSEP

[6] = molecular target: T2, memapsin 1 (amino acid residues 58-461 …); experiment: ratio of Ki apparent for memapsin 1 to that for memapsin 2

B1: CPI-3: (ELDL*AVEF)-GG-(RRRRRRRRR) (peptide)
peptide: ELDLAVEFGG[dR][dR][dR][dR][dR][dR][dR][dR][dR]
modifications: numbers in words are those of the source; also: Leu4*Ala6: hydroxyethylene isostere -CH(OH)-CH2- replaces the amide bond
Ki [1]: 35 nM

B2: CPI-1: FAM-Ahx-(EVNL*AAEF)-G-([…]) (peptide)
peptide: {FAM-Ahx}-EVNLAAEFGYGRKKRRQRRR
modifications: numbers in words are those of the source; also: Leu4*Ala6: hydroxyethylene isostere -CH(OH)-CH2- replaces the amide bond
notes: OM99-2 joined through Gly to HIV tat residues 47-57; also called Fs[OM99-2]tat
Ki apparent [1]: 39 nM

B3: CPI-2: FAM-Ahx-(ELDL*AVEF)-GG-(RRRRRRRRR) (peptide)
peptide: {FAM-Ahx}-ELDLAVEFGG[dR][dR][dR][dR][dR][dR][dR][dR][dR]
modifications: numbers in words are those of the source; also: Leu4*Ala6: hydroxyethylene isostere -CH(OH)-CH2- replaces the amide bond
notes: OM00-3 joined through Gly-Gly to nine D-arginines
Ki apparent [1]: 58 nM

B4: library bead Gly-Ile-Asp-Leu*Ala-Ala-Gln-Phe-Arg-Met-Gly-Gly-resin (peptide)
peptide: GIDLAAQFRMGG-resin
modifications: reading uncertain; also: hydroxyethylene isostere between Leu4 and Ala5, printed as Gly-Ile-Asp-Leu*Ala-Ala-Gln-Phe-Arg-Met-Gly-Gly-resin
binding result [2]: binds

B5: OM00-3 (ELDL*AVEF; Glu-Leu-Asp-Leu*Ala-Val-Glu-Phe) (peptide)
peptide: ELDLAVEF
modifications: numbers in words are those of the source; also: Leu4*Ala5: hydroxyethylene transition-state isostere -CH(OH)-CH2- replaces the peptide bond
Ki [3]: 0.31 nM | fold improvement of Ki relative to OM99-2 [3]: 5.2 fold | fold lower Ki than OM99-2 [3]: ~5 fold | Ki apparent [4]: 0.31 nM | Ki apparent [5]: 0.18 nM | Ki apparent (M1/M2) [6]: 0.59
